The results in this text go back to US6991908 (Takeda / Millennium, dated 2006).

Positions of bridges follow the written chain, without caps; N, C: chain ends. No end group written: not given here.

For one assay, the target named is rat SLC-1 (rat, UniProt P97639 1-353). Description: cell-based or functional assay.
In a further assay the target is T1, human SLC-1 (human).
T1 construct: also called hSLC-1; human SLC-1(S)
The assay is described as follows: radioligand competition against [125I]-labeled MCH(4-19) on human SLC-1-expression CHO cell membrane fraction (2.5 µg/ml), filtration, γ-counter.

On to RCMLGRVYRPCWQV (disulfide 2-11) [Des-[Asp1, Phe2, Asp3, Met4, Leu5]-MCH (MCH(6-19))], for which the “agonist activity, GTPγS binding assay (fold decrease against MCH)” value with rat SLC-1 is ~10 times.

B1: melanin concentrating hormone (MCH), rat MCH (ligand)
peptide: DFDMLRCMLGRVYRPCWQV
modifications: disulfide 7-16
notes: also called synthetic MCH; synthetic rat MCH
Turning to B1, the IC50 in the assay with human SLC-1 turned out to be 0.2 nM.
For the molecule CMLGRVYRPCWQV (disulfide 1-10) [Des-[Asp1, Phe2, Asp3, Met4, Leu5, Arg6]-MCH (MCH(7-19))], the “agonist activity, GTPγS binding assay (fold decrease against MCH)” value in the assay with rat SLC-1 is ~200 times.
